The values that follow come from patent US20240279278A1, “NMU RECEPTOR 2 AGONISTS” (Boehringer Ingelheim International GmbH, priority 2023, published 2024).

This test deals with T1, human neuromedin U receptor 1 (human, UniProt Q9HB89 24-426).
T1 sequence (looked up): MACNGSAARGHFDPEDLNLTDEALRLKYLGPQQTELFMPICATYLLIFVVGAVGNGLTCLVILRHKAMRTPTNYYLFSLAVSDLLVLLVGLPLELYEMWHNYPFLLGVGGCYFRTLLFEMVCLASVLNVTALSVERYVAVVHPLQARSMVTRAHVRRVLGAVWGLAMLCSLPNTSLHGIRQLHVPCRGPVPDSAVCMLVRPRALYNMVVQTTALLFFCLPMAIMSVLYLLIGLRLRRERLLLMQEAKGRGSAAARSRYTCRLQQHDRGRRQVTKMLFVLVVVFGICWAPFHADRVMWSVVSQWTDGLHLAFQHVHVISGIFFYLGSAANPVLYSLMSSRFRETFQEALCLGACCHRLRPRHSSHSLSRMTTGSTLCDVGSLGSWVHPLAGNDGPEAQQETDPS
As to the kind of experiment: cell-based or functional assay.

B1: C20DA-gGlu3-Sar15-AEPipAc-Tyr-Phe-NMeLeu-Nle-Orn-bAla-Arg-Gly-NH2 (peptide)
peptide: EEEXXXXXXXXXXXXXXXXYFLXXXRG
HELM: PEPTIDE1{[O=C(O)CCCCCCCCCCCCCCCCCCC(=O)[*:2]].[gGlu].[gGlu].[gGlu].[Sar].[Sar].[Sar].[Sar].[Sar].[Sar].[Sar].[Sar].[Sar].[Sar].[Sar].[Sar].[Sar].[Sar].[Sar].[O=C(CN1CCN(CCN[*:1])CC1)[*:2]].Y.F.[meL].[Nle].[Orn].[bAla].R.G.[am]}$$$$V2.0
SMILES: CCCC[C@H](NC(=O)[C@H](CC(C)C)N(C)C(=O)[C@H](Cc1ccccc1)NC(=O)[C@H](Cc1ccc(O)cc1)NC(=O)CN1CCN(CCNC(=O)CN(C)C(=O)CN(C)C(=O)CN(C)C(=O)CN(C)C(=O)CN(C)C(=O)CN(C)C(=O)CN(C)C(=O)CN(C)C(=O)CN(C)C(=O)CN(C)C(=O)CN(C)C(=O)CN(C)C(=O)CN(C)C(=O)CN(C)C(=O)CN(C)C(=O)CC[C@H](NC(=O)CC[C@H](NC(=O)CC[C@H](NC(=O)CCCCCCCCCCCCCCCCCCC(=O)O)C(=O)O)C(=O)O)C(=O)O)CC1)C(=O)N[C@@H](CCCN)C(=O)NCCC(=O)N[C@@H](CCCNC(=N)N)C(=O)NCC(N)=O
In the case of B1, the “EC50 (hNMUR1) buffer” value was above 1000 nM.

B2: C20DA-gGlu4-Sar12-AEPipAc-Tyr-Phe-NMeLeu-Nle-Dbu-NMeAla-Arg-Gly-NH2 (peptide)
peptide: EEEEXXXXXXXXXXXXXYFLXXARG
HELM: PEPTIDE1{[O=C(O)CCCCCCCCCCCCCCCCCCC(=O)[*:2]].[gGlu].[gGlu].[gGlu].[gGlu].[Sar].[Sar].[Sar].[Sar].[Sar].[Sar].[Sar].[Sar].[Sar].[Sar].[Sar].[Sar].[O=C(CN1CCN(CCN[*:1])CC1)[*:2]].Y.F.[meL].[Nle].[Dab].[meA].R.G.[am]}$$$$V2.0
SMILES: CCCC[C@H](NC(=O)[C@H](CC(C)C)N(C)C(=O)[C@H](Cc1ccccc1)NC(=O)[C@H](Cc1ccc(O)cc1)NC(=O)CN1CCN(CCNC(=O)CN(C)C(=O)CN(C)C(=O)CN(C)C(=O)CN(C)C(=O)CN(C)C(=O)CN(C)C(=O)CN(C)C(=O)CN(C)C(=O)CN(C)C(=O)CN(C)C(=O)CN(C)C(=O)CN(C)C(=O)CC[C@H](NC(=O)CC[C@H](NC(=O)CC[C@H](NC(=O)CC[C@H](NC(=O)CCCCCCCCCCCCCCCCCCC(=O)O)C(=O)O)C(=O)O)C(=O)O)C(=O)O)CC1)C(=O)N[C@@H](CCN)C(=O)N(C)[C@@H](C)C(=O)N[C@@H](CCCNC(=N)N)C(=O)NCC(N)=O
Regarding B2, the “EC50 (hNMUR1) buffer” value was above 1000 nM.

B3: C20DA-gGlu3-Sar15-AEPipAc-Tyr-Phe-NMeLeu-Nle-Orn-Gly-Arg-Gly-NH2 (peptide)
peptide: EEEXXXXXXXXXXXXXXXXYFLXXGRG
HELM: PEPTIDE1{[O=C(O)CCCCCCCCCCCCCCCCCCC(=O)[*:2]].[gGlu].[gGlu].[gGlu].[Sar].[Sar].[Sar].[Sar].[Sar].[Sar].[Sar].[Sar].[Sar].[Sar].[Sar].[Sar].[Sar].[Sar].[Sar].[O=C(CN1CCN(CCN[*:1])CC1)[*:2]].Y.F.[meL].[Nle].[Orn].G.R.G.[am]}$$$$V2.0
SMILES: CCCC[C@H](NC(=O)[C@H](CC(C)C)N(C)C(=O)[C@H](Cc1ccccc1)NC(=O)[C@H](Cc1ccc(O)cc1)NC(=O)CN1CCN(CCNC(=O)CN(C)C(=O)CN(C)C(=O)CN(C)C(=O)CN(C)C(=O)CN(C)C(=O)CN(C)C(=O)CN(C)C(=O)CN(C)C(=O)CN(C)C(=O)CN(C)C(=O)CN(C)C(=O)CN(C)C(=O)CN(C)C(=O)CN(C)C(=O)CN(C)C(=O)CC[C@H](NC(=O)CC[C@H](NC(=O)CC[C@H](NC(=O)CCCCCCCCCCCCCCCCCCC(=O)O)C(=O)O)C(=O)O)C(=O)O)CC1)C(=O)N[C@@H](CCCN)C(=O)NCC(=O)N[C@@H](CCCNC(=N)N)C(=O)NCC(N)=O
B3: the “EC50 (hNMUR1) buffer” value was above 1000 nM.

B4: C20DA-gGlu4-Sar15-AEPipAc-Tyr-Phe-NMeLeu-Nle-Orn-Pro-Arg-Gly-NH2 (peptide)
peptide: EEEEXXXXXXXXXXXXXXXXYFLXXPRG
HELM: PEPTIDE1{[O=C(O)CCCCCCCCCCCCCCCCCCC(=O)[*:2]].[gGlu].[gGlu].[gGlu].[gGlu].[Sar].[Sar].[Sar].[Sar].[Sar].[Sar].[Sar].[Sar].[Sar].[Sar].[Sar].[Sar].[Sar].[Sar].[Sar].[O=C(CN1CCN(CCN[*:1])CC1)[*:2]].Y.F.[meL].[Nle].[Orn].P.R.G.[am]}$$$$V2.0
SMILES: CCCC[C@H](NC(=O)[C@H](CC(C)C)N(C)C(=O)[C@H](Cc1ccccc1)NC(=O)[C@H](Cc1ccc(O)cc1)NC(=O)CN1CCN(CCNC(=O)CN(C)C(=O)CN(C)C(=O)CN(C)C(=O)CN(C)C(=O)CN(C)C(=O)CN(C)C(=O)CN(C)C(=O)CN(C)C(=O)CN(C)C(=O)CN(C)C(=O)CN(C)C(=O)CN(C)C(=O)CN(C)C(=O)CN(C)C(=O)CN(C)C(=O)CC[C@H](NC(=O)CC[C@H](NC(=O)CC[C@H](NC(=O)CC[C@H](NC(=O)CCCCCCCCCCCCCCCCCCC(=O)O)C(=O)O)C(=O)O)C(=O)O)C(=O)O)CC1)C(=O)N[C@@H](CCCN)C(=O)N1CCC[C@H]1C(=O)N[C@@H](CCCNC(=N)N)C(=O)NCC(N)=O
In the case of B4, the “EC50 (hNMUR1) buffer” value amounted to 440 nM.

B5: C20DA-gGlu4-Sar12-AEPipAc-Tyr-Phe-NMeLeu-Nle-Lys-NMeAla-Arg-Gly-NH2 (peptide)
peptide: EEEEXXXXXXXXXXXXXYFLXKARG
HELM: PEPTIDE1{[O=C(O)CCCCCCCCCCCCCCCCCCC(=O)[*:2]].[gGlu].[gGlu].[gGlu].[gGlu].[Sar].[Sar].[Sar].[Sar].[Sar].[Sar].[Sar].[Sar].[Sar].[Sar].[Sar].[Sar].[O=C(CN1CCN(CCN[*:1])CC1)[*:2]].Y.F.[meL].[Nle].K.[meA].R.G.[am]}$$$$V2.0
SMILES: CCCC[C@H](NC(=O)[C@H](CC(C)C)N(C)C(=O)[C@H](Cc1ccccc1)NC(=O)[C@H](Cc1ccc(O)cc1)NC(=O)CN1CCN(CCNC(=O)CN(C)C(=O)CN(C)C(=O)CN(C)C(=O)CN(C)C(=O)CN(C)C(=O)CN(C)C(=O)CN(C)C(=O)CN(C)C(=O)CN(C)C(=O)CN(C)C(=O)CN(C)C(=O)CN(C)C(=O)CC[C@H](NC(=O)CC[C@H](NC(=O)CC[C@H](NC(=O)CC[C@H](NC(=O)CCCCCCCCCCCCCCCCCCC(=O)O)C(=O)O)C(=O)O)C(=O)O)C(=O)O)CC1)C(=O)N[C@@H](CCCCN)C(=O)N(C)[C@@H](C)C(=O)N[C@@H](CCCNC(=N)N)C(=O)NCC(N)=O
As to B5, the “EC50 (hNMUR1) buffer” value amounted to 1400 nM.

B6: C20DA-gGlu4-Sar12-AEPipAc-Tyr-Phe-NMeLeu-Nle-Lys-Pro-Arg-Gly-NH2 (peptide)
peptide: EEEEXXXXXXXXXXXXXYFLXKPRG
HELM: PEPTIDE1{[O=C(O)CCCCCCCCCCCCCCCCCCC(=O)[*:2]].[gGlu].[gGlu].[gGlu].[gGlu].[Sar].[Sar].[Sar].[Sar].[Sar].[Sar].[Sar].[Sar].[Sar].[Sar].[Sar].[Sar].[O=C(CN1CCN(CCN[*:1])CC1)[*:2]].Y.F.[meL].[Nle].K.P.R.G.[am]}$$$$V2.0
SMILES: CCCC[C@H](NC(=O)[C@H](CC(C)C)N(C)C(=O)[C@H](Cc1ccccc1)NC(=O)[C@H](Cc1ccc(O)cc1)NC(=O)CN1CCN(CCNC(=O)CN(C)C(=O)CN(C)C(=O)CN(C)C(=O)CN(C)C(=O)CN(C)C(=O)CN(C)C(=O)CN(C)C(=O)CN(C)C(=O)CN(C)C(=O)CN(C)C(=O)CN(C)C(=O)CN(C)C(=O)CC[C@H](NC(=O)CC[C@H](NC(=O)CC[C@H](NC(=O)CC[C@H](NC(=O)CCCCCCCCCCCCCCCCCCC(=O)O)C(=O)O)C(=O)O)C(=O)O)C(=O)O)CC1)C(=O)N[C@@H](CCCCN)C(=O)N1CCC[C@H]1C(=O)N[C@@H](CCCNC(=N)N)C(=O)NCC(N)=O
Turning to B6, the “EC50 (hNMUR1) buffer” value stood at 1200 nM.
